{"source": "paper PMC3959856", "target": "SpyTag-MBP (Streptococcus pyogenes)", "test": "covalent adduct formation by SDS-PAGE densitometry", "data": [{"substance": "full-length SpyCatcher (as used in the reaction assay of Fig. 4b) (domain or fragment)", "values": [{"measurement": "percent covalent complex formation after 1 min", "result": 40, "unit": "%"}, {"measurement": "percent covalent complex formation after 10 min", "result": 65, "unit": "%"}]}]}
